Laboratory results published in the supplement of paper PMC10126150.
± gives the standard deviation of the averaged measurements.

test system: ATP; test: switch fluorescence ratio, 500 uM ATP over buffer (Cy3 cluster intensity, sum of 5 cycles each) (fold (ratio)); higher = stronger signal-on switching upon ATP binding; sequences stand for … in TCGTCGGCAGCGTCAGATGTGTATAAGAGACAGTTTTTTTTTTTTTTTTTTTTTTTTT…TC; conditions: aptamer strand: ATP DNA aptamer (quencher-CACCTGGGGGAGTATTGCGGAGGAAGG + anchor), 100 nM annealed; ATP concentration: 500 uM
Outline: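 Cy3-labelled switching-strand clusters on a modified Illumina MiSeq flow-cell were annealed to 100 nM quencher-labelled ATP aptamer, imaged in selection buffer, then imaged after 15 min with 500 uM ATP at 22 °C. Five buffer/ATP cycles ran, with NaOH stripping and re-annealing between them. The fluorescence ratio is summed target-cycle over summed buffer-cycle Cy3 intensity per cluster, averaged per switch-domain sequence. Clusters outside 100-1000 RFU were excluded.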
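Note: ATP exposure 15 min at 22 °C before imaging.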

Sequence | switch fluorescence ratio
AAATAGGGTG | 1.13 ± 0.18
GTGGGCTTGT | 0.979 ± 0.048
TTTTATGC | 1.01 ± 0.061
TAATGGGCTT | 0.997 ± 0.012
TTTAAGGTCG | 1.03 ± 0.082
AGTGTCGTGG | 1 ± 0.046
ATTTTTGGCT | 0.995 ± 0.042
GGGGAATGCG | 1.01 ± 0.0065
CGTTCTAGTT | 1.001 ± 0.01
GACTGGAAGG | 1.01 ± 0.011
TGATGATGGG | 0.985 ± 0.038
TAGGAGTAAC | 0.9812 ± 0.0037
AGTCAGTCTG | 1.01 ± 0.059
AATTAGGATT | 0.99 ± 0.016
ATGAGGGGCG | 1.02 ± 0.041
CTTTTGAAGT | 0.983 ± 0.01
TAATATCGGG | 0.98 ± 0.027
AGCTTAGGGC | 0.989 ± 0.03
GATAGGGCAT | 1.02 ± 0.012
TTTGGCCCTT | 1.02 ± 0.027
GGTGTTGAGA | 1.01 ± 0.04
GGGATCTGGT | 1.002 ± 0.0098
AATAAAATTT | 1.04 ± 0.022
TATGAGGGTG | 1.08 ± 0.13
ATGTTTTATA | 1.02 ± 0.023

Sequence | switch fluorescence ratio
TAGCATCTTT | 0.98 ± 0.067
GTGTTCGGGC | 1.02 ± 0.011
AAGGTATGCT | 0.982 ± 0.019
ACTCGTTTCG | 1 ± 0.013
ATCAGATTAC | 1.025 ± 0.0092
GGTAGTATCC | 1.02 ± 0.025
CAATCCTGGG | 0.989 ± 0.034
TTTTGCTGCG | 1.023 ± 0.0033
TAAAGAAAAA | 1.02 ± 0.029
AACCTCTCGG | 1.033 ± 0.0039
GTGAATGGGG | 0.969 ± 0.042
GCTGGTGTTG | 1 ± 0.013
TTGGTTTCCT | 1.02 ± 0.038
GCCGTTAGCG | 1.02 ± 0.049
ATAAGGTACG | 1.05 ± 0.077
GCAAGAATTT | 0.982 ± 0.046
TAAGAAATGT | 1.04 ± 0.04
ACGGTGGGGA | 1.04 ± 0.036
AGCGTACTTT | 1.12 ± 0.018
ATTTATATCT | 1 ± 0.015
CTTGGTCGGC | 1.068 ± 0.0026
GTGATTTATT | 0.988 ± 0.019
GATATTAGAT | 1.02 ± 0.046
TAGGTTGCTT | 1.02 ± 0.021
ATGGGGACGG | 1.013 ± 0.0035

Sequence | switch fluorescence ratio
TGGGGGCCGG | 1.02 ± 0.039
CGGGGTTAAG | 0.975 ± 0.025
GGGATAAAAT | 1.01 ± 0.017
TGGTGAGGGG | 1.12 ± 0.24
TTATAGACAG | 0.997 ± 0.034
TACTTTGCTG | 1.02 ± 0.066
TAAGGCGCCG | 0.962 ± 0.031
AGGAGTGGTG | 0.994 ± 0.034
TGATAACTGG | 0.9745 ± 0.0064
GAAGGAAGTG | 1 ± 0.034
TGGTAAGGGG | 1.12 ± 0.25
TATTTTCATT | 0.999 ± 0.015
ATAGCAGGCG | 1.01 ± 0.027
GTTGGTGATT | 0.9959 ± 0.0062
GGTTAGGTCG | 1.06 ± 0.081
GTATGGGGGT | 0.963 ± 0.024
TTGTAACCAG | 1.0005 ± 0.001
TCGCTTGTTG | 1.03 ± 0.022
TGGATATGAC | 1 ± 0.015
ATGGGAGGCG | 0.982 ± 0.043
TGAGTTAAGG | 0.986 ± 0.012
GAATAGGTAT | 0.99505 ± 0.00011
GCACCAGGGG | 1.81 ± 0.81
TGCTGGGTTT | 0.998 ± 0.011
TTTGGCTACG | 1.01 ± 0.011

Sequence | switch fluorescence ratio
GTTGGGCGGG | 0.991 ± 0.035
GGCGCAGCTG | 0.96511 ± 0.0006
GCTACCGGTG | 1.1 ± 0.072
GAGGGTCAAA | 1.004 ± 0.01
AACCAGAGTA | 1.011 ± 0.0039
CCAGTAAAAT | 1.01 ± 0.019
TTGCTATACG | 1.2 ± 0.13
ATGGGGGAAC | 0.975 ± 0.011
AATGGGCAGC | 1.02 ± 0.013
CATAGGGGAA | 1.01 ± 0.011
GCGTCCAGTT | 1.09 ± 0.12
AGGCAACGGT | 1.01 ± 0.012
AATCGAGGGG | 0.991 ± 0.03
TGGGTCAAAG | 0.9881 ± 0.0088
CGGGAGACGG | 1.31 ± 0.26
AAGTCCCGCT | 1.12 ± 0.17
GTCGTGCGTA | 1.03 ± 0.099
TAATGGTCGT | 0.989 ± 0.029
GGAAATGAGT | 1.02 ± 0.016
ATCCTTGTTT | 0.997 ± 0.083
TTGTTTTTT | 1.03 ± 0.018
TAGGGGGATT | 1.014 ± 0.0089
ATATTCTTAG | 1.01 ± 0.013
CAGTCTTGC | 1.03 ± 0.021
TATAGTTGTG | 0.965 ± 0.025
